The assay deals with aryl hydrocarbon nuclear receptor translocator 2 (ARNT2), in T-REx293 lysate (human (endogenous in T-REx293)) (UniProt Q9HBZ2).
UniProt Q9HBZ2, sequence (Q9HBZ2 whole entry): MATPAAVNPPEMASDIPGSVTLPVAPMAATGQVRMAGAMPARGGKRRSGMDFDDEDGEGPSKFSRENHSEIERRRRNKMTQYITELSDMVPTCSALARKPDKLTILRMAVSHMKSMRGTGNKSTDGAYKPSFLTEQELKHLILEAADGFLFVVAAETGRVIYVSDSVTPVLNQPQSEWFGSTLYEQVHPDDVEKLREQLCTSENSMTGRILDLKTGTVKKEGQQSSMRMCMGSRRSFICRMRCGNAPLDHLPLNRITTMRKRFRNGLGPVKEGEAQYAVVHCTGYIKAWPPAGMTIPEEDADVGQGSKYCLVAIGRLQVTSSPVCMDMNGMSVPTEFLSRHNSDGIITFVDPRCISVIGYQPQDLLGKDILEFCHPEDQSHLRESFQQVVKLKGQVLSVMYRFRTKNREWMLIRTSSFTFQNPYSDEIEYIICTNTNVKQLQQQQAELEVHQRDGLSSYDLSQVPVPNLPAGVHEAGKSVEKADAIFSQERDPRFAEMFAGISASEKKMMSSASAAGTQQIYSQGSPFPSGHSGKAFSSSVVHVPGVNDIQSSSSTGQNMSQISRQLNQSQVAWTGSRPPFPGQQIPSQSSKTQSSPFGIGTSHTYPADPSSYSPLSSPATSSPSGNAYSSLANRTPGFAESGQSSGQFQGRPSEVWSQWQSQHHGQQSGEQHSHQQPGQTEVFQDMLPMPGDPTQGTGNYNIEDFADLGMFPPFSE

“SIM2s-2xHA-3xFLAG W306R variant (natural protein)” returned a 6xCME luciferase reporter gene activity compared with WT SIM2s of 50 % reduction.

The values are drawn from PMC9342896.
